This sample holds only a part of the variants without activity.
Experiments:
biotinyl-Leu-oxazolone = assay: self-aminoacylation, catalytic enhancement (BLO) (fold over background); higher = more active; k-Seq, kA / k0A0; sequences stand for … in GGGAAUGGAUCCACAUCUACGAAUUC…UUCACUGCAGACUUGACGAAGCUG
Outline: (§1)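 Each biotinyl-aminoacyl-oxazolone, at 2–1250 μM, was incubated with mutagenized RNA pools (0.43 μM) carrying a 21-nt variable region. The 50 μL reactions contained HEPES/NaCl/KCl/MgCl2/CaCl2 buffer with 5% acetonitrile at pH 6.9–7.0 and ran for 90 minutes at room temperature. After streptavidin capture, RNA was measured by qPCR in triplicate and by Illumina sequencing, and catalytic enhancement was calculated as median kA over the uncatalyzed rate from a pseudo-first-order fit of per-sequence fraction reacted.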

biotinyl-Met-oxazolone = assay: self-aminoacylation, catalytic enhancement (BMO) (fold over background); higher = more active; k-Seq, kA / k0A0; sequences stand for … in GGGAAUGGAUCCACAUCUACGAAUUC…UUCACUGCAGACUUGACGAAGCUG
Outline: as §1

biotinyl-Trp-oxazolone = assay: self-aminoacylation, catalytic enhancement (BWO) (fold over background); higher = more active; k-Seq, kA / k0A0; sequences stand for … in GGGAAUGGAUCCACAUCUACGAAUUC…UUCACUGCAGACUUGACGAAGCUG
Outline: as §1

biotinyl-Ile-oxazolone = assay: self-aminoacylation, catalytic enhancement (BIO) (fold over background); higher = more active; k-Seq, kA / k0A0; sequences stand for … in GGGAAUGGAUCCACAUCUACGAAUUC…UUCACUGCAGACUUGACGAAGCUG
Outline: as §1

biotinyl-Phe-oxazolone = assay: self-aminoacylation, catalytic enhancement (BFO) (fold over background); higher = more active; k-Seq, kA / k0A0; sequences stand for … in GGGAAUGGAUCCACAUCUACGAAUUC…UUCACUGCAGACUUGACGAAGCUG
Outline: as §1

biotinyl-Val-oxazolone = assay: self-aminoacylation, catalytic enhancement (BVO) (fold over background); higher = more active; k-Seq, kA / k0A0; sequences stand for … in GGGAAUGGAUCCACAUCUACGAAUUC…UUCACUGCAGACUUGACGAAGCUG
Outline: as §1

Sequence	self-aminoacylation (biotinyl-Leu-oxazolone)	self-aminoacylation (biotinyl-Met-oxazolone)	self-aminoacylation (biotinyl-Trp-oxazolone)	self-aminoacylation (biotinyl-Ile-oxazolone)	self-aminoacylation (biotinyl-Phe-oxazolone)	self-aminoacylation (biotinyl-Val-oxazolone)
AUUACCCUGUACAUCGAGUGA [Fam2.1 aminoacylation ribozyme variant]	11.6	12.5	13.2	5.18	71.1	6.19
CCACGCUUCAAGCAAUCGGAC [Fam1B.1 aminoacylation ribozyme variant]	0.696	0.64	1.24	0.794	1.87	0.666
CUACUUCAAACAAUCCGUCCG [Fam1A.1 aminoacylation ribozyme variant]	0.927	0.708	0.751	0.825	0.694	0.903
CGACUUCAAACGAUCGGUCUG [Fam1A.1 aminoacylation ribozyme variant]	1.41	1.31	2.1	1.05	1.8	1.13
CUACUUCAAGCAAUCAGUCUG [Fam1A.1 aminoacylation ribozyme variant]	0.698	0.615	2.25	0.772	5.21	0.786
UUUACCCUGGUCAUAGAGUGA [Fam2.1 aminoacylation ribozyme variant]	5.87	5.18	7.54	2.89	27.7	3.07
GUUACCCUGGUCAACGAGUGA [Fam2.1 aminoacylation ribozyme variant]	6.2	5.98	6.61	3.72	42.7	3.22
CGACUUCAAACAAUCCGUCUG [Fam1A.1 aminoacylation ribozyme variant]	1.07	1.23	1.72	1.27	2.5	1.18
AUUACGCUGGUCAGCGAGUGA [Fam2.1 aminoacylation ribozyme variant]	4.3	4.57	4.4	3.34	21.2	2.4
CCACACUUCAAGCCAUCGGUG [Fam1B.1 aminoacylation ribozyme variant]	6.79	4.72	4.89	3.57	31.3	4.15
AUUACUCUUGUCAUCGAGUGA [Fam2.1 aminoacylation ribozyme variant]	6.33	6.03	7.7	3.58	22	3.45
AUUACCCUGGUCAUCGAGAGU [Fam2.1 aminoacylation ribozyme variant]	0.822	0.991	0.568	0.803	1.79	1.02
CUACUUCAAACAAUCGGGCUC [Fam1A.1 aminoacylation ribozyme variant]	0.971	1.08	2.48	1.01	5.16	1.17
AUUGACCUAGGUCAUGGGGUG [Fam2.2 aminoacylation ribozyme variant]	3.32	2.92	3.74	3.08	17	2.9
AUUCACCUGGGUCAUCCGGUG [Fam2.2 aminoacylation ribozyme variant]	13.3	11.2	9.13	7.06	75.6	7.4
AAGUUUUCGAAUAGUCGCAAG [Fam3.1 aminoacylation ribozyme variant]	1.86	1.82	2.24	2.14	3.28	1.81
CCACACUUCAUGCAAUCGUUC [Fam1B.1 aminoacylation ribozyme variant]	0.513	0.566	0.373	0.737	0.835	0.699
CUACUUCAUACAAACGGUCUG [Fam1A.1 aminoacylation ribozyme variant]	0.652	0.725	0.536	0.936	1.06	0.803
AUUCACCUAGGCCAUCGGGAG [Fam2.2 aminoacylation ribozyme variant]	0.965	1.69	1.05	1.1	0.861	1.39
AUUCACCUAUGUCAUCGGGCG [Fam2.2 aminoacylation ribozyme variant]	2.87	2.79	2.2	2.22	10.4	2.13
AUACACCUAGGUGAUCGGGUG [Fam2.2 aminoacylation ribozyme variant]	3.88	3.56	4.59	3.87	16.4	2.6
CUACUUCAAACAAUCGGUCAA [Fam1A.1 aminoacylation ribozyme variant]	0.712	0.695	2.24	0.846	6.72	0.996
AUUACCCUGUUCAUCGUGUGA [Fam2.1 aminoacylation ribozyme variant]	6.24	6.29	8.71	3.1	43.7	3.04
GUUACCCUGGCCAUCGAGUGA [Fam2.1 aminoacylation ribozyme variant]	8.07	6.73	9.03	4.06	43.7	5
CUACUUCACACAAUUGGUCUG [Fam1A.1 aminoacylation ribozyme variant]	0.729	1	0.828	0.948	0.431	0.739

Source: the supplement of paper PMC9233669
